From US11499162B2, “Plants having increased tolerance to herbicides” (BASF SE, priority 2016, dated 2022)
Substitutions are numbered along the chain they refer to. Names may count otherwise.

B1: N70IQ71IF157A: mutated TriA variant of SEQ ID NO: 2 (protein)
chain: MQTLSIQHGTLVTMDQYRRVLGDSWVHVQDGRIVALGVHAESVPPPADRVIDARGKVVLPGFINAHTHVIIILLRGGPSHGRQLYDWLFNVLYPGQKAMRPEDVAVAVRLYCAEAVRSGITTINDNADSAIYPGNIEAAMAVYGEVGVRVVYARMFADRMDGRIQGYVDALKARSPQVELCSIMEETAVAKDRITALSDQYHGTAGGRISVWPAPAITPAVTVEGMRWAQAFARDRAVMWTLHMAESDHDERLHWMSPAEYMECYGLLDERLQVAHCVYFDRKDVRLLHRHNVKVASQVVSNAYLGSGVAPVPEMVERGMAVGIGTDDGNCNDSVNMIGDMKFMAHIHRAVHRDADVLTPEKILEMATIDGARSLGMDHEIGSIETGKRADLILLDLRHPQTTPHHHLAATIVFQAYGNEVDTVLIDGNVVMENRRLSFLPPERELAFLEEAQSRATAILQRANMVANPAWRSL
modifications: Pseudomonas
B2: V69L: mutated TriA variant of SEQ ID NO: 2 (protein)
chain: B1 chain with V69L, I70N, I71Q, A157F
modifications: Pseudomonas
B3: L88VL92I: mutated TriA variant of SEQ ID NO: 2 (protein)
chain: B1 chain with I70N, I71Q, L88V, L92I, A157F
modifications: Pseudomonas
B4: L88VL92IF157V: mutated TriA variant of SEQ ID NO: 2 (protein)
chain: B1 chain with I70N, I71Q, L88V, L92I, A157V
modifications: Pseudomonas
B5: Q96V: mutated TriA variant of SEQ ID NO: 2 (protein)
chain: B1 chain with I70N, I71Q, Q96V, A157F
modifications: Pseudomonas
B6: L88VL92V: mutated TriA variant of SEQ ID NO: 2 (protein)
chain: B1 chain with I70N, I71Q, L88V, L92V, A157F
modifications: Pseudomonas
B7: N70VQ71L92VM155AF157A: mutated TriA variant of SEQ ID NO: 2 (protein)
chain: B1 chain with I70V, I71L, L92V, M155A
modifications: Pseudomonas
B8: V69A: mutated TriA variant of SEQ ID NO: 2 (protein)
chain: B1 chain with V69A, I70N, I71Q, A157F
modifications: Pseudomonas
B9: Q71LL88AV91AL92V: mutated TriA variant of SEQ ID NO: 2 (protein)
chain: B1 chain with I70N, I71L, L88A, V91A, L92V, A157F
modifications: Pseudomonas
B10: L88VL92VF157A: mutated TriA variant of SEQ ID NO: 2 (protein)
chain: B1 chain with I70N, I71Q, L88V, L92V
modifications: Pseudomonas
B11: L74V: mutated TriA variant of SEQ ID NO: 2 (protein)
chain: B1 chain with I70N, I71Q, L74V, A157F
modifications: Pseudomonas
B12: Q71LV91AL92V: mutated TriA variant of SEQ ID NO: 2 (protein)
chain: B1 chain with I70N, I71L, V91A, L92V, A157F
modifications: Pseudomonas
B13: Q71LL88AV91AL92VF157L: mutated TriA variant of SEQ ID NO: 2 (protein)
chain: B1 chain with I70N, I71L, L88A, V91A, L92V, A157L
modifications: Pseudomonas
B14: L88AF157I: mutated TriA variant of SEQ ID NO: 2 (protein)
chain: B1 chain with I70N, I71Q, L88A, A157I
modifications: Pseudomonas
B15: N70LQ71ID128IM155V: mutated TriA variant of SEQ ID NO: 2 (protein)
chain: B1 chain with I70L, D128I, M155V, A157F
modifications: Pseudomonas
B16: L88AF157L: mutated TriA variant of SEQ ID NO: 2 (protein)
chain: B1 chain with I70N, I71Q, L88A, A157L
modifications: Pseudomonas
B17: N70IQ71L92VM155AF157A: mutated TriA variant of SEQ ID NO: 2 (protein)
chain: B1 chain with I71L, L92V, M155A
modifications: Pseudomonas
B18: V69S: mutated TriA variant of SEQ ID NO: 2 (protein)
chain: B1 chain with V69S, I70N, I71Q, A157F
modifications: Pseudomonas
B19: N70LQ71ID128IM155VF157L: mutated TriA variant of SEQ ID NO: 2 (protein)
chain: B1 chain with I70L, D128I, M155V, A157L
modifications: Pseudomonas
B20: Q71LV91A: mutated TriA variant of SEQ ID NO: 2 (protein)
chain: B1 chain with I70N, I71L, V91A, A157F
modifications: Pseudomonas

Type: biochemical
Conditions: pH 7.2
Method in brief: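 Expression: BL21(DE3) Gold, pET24d N-His, pGro7, 0.1 mM IPTG, 25° C, 20 h. Reaction: 25 mM Na phosphate pH 7.2, substrate 1 nM to 10 nM, 30° C. Analysis: UPLC-HR-MS; % degradation vs empty vector.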

| Molecule | Degradation in % of 6-cyclopentyl-N4-(2,3,4,5,6-pentafluorophenyl)-1,3,5-triazine-2,4-diamine | Degradation in % of Melamine |
| --- | --- | --- |
| B1 | 3% | 0% |
| B2 | 0% | 0% |
| B3 | 0% | 8% |
| B4 | 0% | 5% |
| B5 | 0% | 4% |
| B6 | 0% | 0% |
| B7 | 1% | 0% |
| B8 | 0% | 5% |
| B9 | 1% | 0% |
| B10 | 0% | 0% |
| B11 | 0% | 3% |
| B12 | 3% | 7% |
| B13 | 1% | 4% |
| B14 | 0% | 0% |
| B15 | 0% | 9% |
| B16 | 0% | 2% |
| B17 | 1% | 0% |
| B18 | 3% | 5% |
| B19 | 0% | 3% |
| B20 | 0% | 0% |
